{"source": "the nanobody polyreactivity screen of Harvey et al. (2022)"}
{"experiment": "yeast display, Sf9 membrane polyspecificity reagent, FACS + sequencing; frameworks hold sequencing errors", "how_it_was_run": "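In a synthetic yeast display library (Saccharomyces cerevisiae BJ5465), nanobody expression was induced with galactose for 36–48 hours. FACS gates were set low and high (top ~1%) using anti-HA fluorescence for expression and streptavidin fluorescence for binding of the Sf9 membrane reagent. Each polyreactivity label is drawn from the gate of origin.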"}
{"sequence": "QVQLVESGGGLVQAGGSLRISCAASGIIFRLNAMGWYRQAPGKERELVAAIRRRGGSTYNADSVKGRFTISRHNAKNTVYLQMNSLKPEDTAVYYGAKDPHGSDFGYWGQGTQVTVSS", "polyreactivity (PSR sort gate)": "low polyreactivity"}
{"sequence": "QVQLVESGGGLVQAGGSLRLSCAGSGSIFSIYAMGWYRQAPGKERELVAAIRYDGGSTYYADSVKGRFTISRDNAKNTVYLQMNSLKPEDTAVYYCAAKVYFRRRGLHPYDYWGQGTQVNVSS", "polyreactivity (PSR sort gate)": "low polyreactivity"}
{"sequence": "QVQLVESGGGLVQAGGSLRLSCAASGLIFRLYAMGWYIQAPGKERELVAAISGGGGSTYYADSVKGRFTISRDNAKNTVYLQMNSLKPEDTAVYYCAATYSRGYWWSEYDYWGQGTQVTVSS", "polyreactivity (PSR sort gate)": "low polyreactivity"}
{"sequence": "QVQLGESGGGLVQAGGSLRLSCAASGRIFNVNVMGWYRQAPGKDMELVAAITSGGSTNYADSVKGRFTISRDNAKNTVYLQMNSLKPEDTAVYYCAKDYQYGFGEYPYDYWGQGTQVTVSS", "polyreactivity (PSR sort gate)": "low polyreactivity"}
{"sequence": "QVQLVESGGGLVQAGGSLRLSCAASGRIFYQYAMGWYRQAPGKEREMVAAISRRGASTYYADSVKGRFTISRDNAKNTVYLQMNSLKPEDTAVYYCAAEPRAYSHQYNYWGQGTQVTVSS", "polyreactivity (PSR sort gate)": "high polyreactivity"}
{"sequence": "QVHLVESGGGLVQAGGRLRLSCAASGSIFGYNAMGWYRQAPGKERELVAAISSTGGSTYYADSVKGRFTISRDNAKNTVYLQMNSLYPEDTAVYYCAKRGQSYFKGYDYWGQGTQVTVSS", "polyreactivity (PSR sort gate)": "low polyreactivity"}
{"sequence": "QVQLVVSGGGLVQPGGSLRLSCAATGSTLNSYVMGWYRQAPGKERELVATIRSGSSTNYADSVKGRFTISRDNAKNTVYLLMNSLKPEDTAVYYFAADAYSLCYDSWGQGTLVTVSS", "polyreactivity (PSR sort gate)": "low polyreactivity"}
{"sequence": "QVQLVESGGGLVQAGGSLRLSCAASGRTFSQYAMGWYRQAPGKERELVAAISRGGGSTYYADSVKGRFTISRDNAKNTVYLQMNSLKPEDTAVYYCARATYFYYPFGSWGQGTQVTVSS", "polyreactivity (PSR sort gate)": "high polyreactivity"}
{"sequence": "QVQLVESGGGLVHPGGSLRLSCDASGLILDGYAMGWYRQAPGKERELVAAITRSGGRTYYADSVKGRFTISRDNAKNTVNLQKNRQKPVDTAVYHSAALGWSGRYRYDYWGQGTQVTVSS", "polyreactivity (PSR sort gate)": "high polyreactivity"}
{"sequence": "QVQLVESGGGLVQAGGSLRLSCAASGFTFTPYGMGWYRQAPGKERELVAAITWNGGRTYYADSVKGRFTISRDNAKNTVYLQMNSLKPEDTAVYYCAAVAWSWQKRGYWGQGTQVTVSS", "polyreactivity (PSR sort gate)": "high polyreactivity"}
{"sequence": "QVQLVESGGGLVQAGGSLRLSCAASGIIFYYYAMGWYRHAPGKERELVAAISTSGTRTFYADSVKGRFTISRDNAKNTVYLQMNCLKPEDTAVYYCAARIYKPQRSSSLYRTSGYWGQGTQVTVSS", "polyreactivity (PSR sort gate)": "high polyreactivity"}
{"sequence": "QVQLVESGGGLVQAGGSLRLSCAASGFTFYRNDIGWYRQAPGKERELVAAITFSGGITYYADSVKGRFTISRDNAKNTVYLQMNSLKAEDTAVYYCAAEGVGAARVYQGGEYNYWGQGTQVTVSS", "polyreactivity (PSR sort gate)": "low polyreactivity"}
{"sequence": "QVQLVESGGGLVQAGGSLRLSCAASGFTFSSYAMGWYRQAPGKERELDAAITRNGGSTYYADSVKGRFTISRDNAKNTDYLQMNSLNPEYTAVYNCAAQYPRQRYGYYWPYYKYYYWGHGTQVTVSS", "polyreactivity (PSR sort gate)": "high polyreactivity"}
{"sequence": "QVQLVESGGGLVQAGGSLRLSCAASGPIFHPYAMGWYRHAPGKERELVAAITNSGGITYADSVKGRFTISRDNAKNTVYLQMNSLKPEDTAVYYCNTATNRFHYKYRKPYDYWGQGTQVTVSS", "polyreactivity (PSR sort gate)": "low polyreactivity"}
{"sequence": "QVQLVESGGGLVQAGGSLRLSCAASGRTFYRNAMGWYRQAPGKERELVAAISWSGGRTFYADSVKGRFTISRDNAKNTVYLQMNSLKPEDTAVYYCAKTYTTPGYYRYDYWGQGTQVTVSS", "polyreactivity (PSR sort gate)": "high polyreactivity"}
{"sequence": "QDQLVESGGGLVQAGGSLRLSCAASGRTFYANAMGWNRQAPGKERELVAAISSSDDITYYADSVKGRFTNSRDNAKNTVYLQINSMKPEDTAVYYCAAEEYIVTYSGFWQEYEYWGQGTQVTVSS", "polyreactivity (PSR sort gate)": "high polyreactivity"}
{"sequence": "QVQLVESGGRLVQAGGSLRLSGAASGFTFGRNAKGWYRPAPGKERELVASIDWSGGSTYYADSVKGRFTISRDNAKNTFFLQMNSLKPEETAVYYCAVGPNSVGNRSYGFDYWGQGTQVTVSS", "polyreactivity (PSR sort gate)": "low polyreactivity"}
{"sequence": "QVQLVESGGGLVQAGGSLRLSCAASGSIFVTYAMGWYRQAPGKERELVASITLSGGSTYYADSVKGRFTISRDNAKNTVYFQKNSLKPEDTEVYYCNAEGTSWTSTRFDYWGQGTQVTVSS", "polyreactivity (PSR sort gate)": "high polyreactivity"}
{"sequence": "QVQLVESGGGLVQAGGSLRLSCAASGSTFAPNTMGWYRQAPGKERELVAGITDGTITTYADSVKGRFTISRDNAKNTVYLQMNSLKPEDTAVYYCATRQSWYPRWMDYWGQGTQVTVSS", "polyreactivity (PSR sort gate)": "high polyreactivity"}
{"sequence": "QDQLVESGVGLVQAGGILRLSCAASVSTFNRYAMVWYRQAPGKERELVAAISSSGGYTYYADSVKGRFTNSRDNAKNTVYFQMNSLKAEDTAVYYCNAAYRVRRFDYWGQGTQVTVSS", "polyreactivity (PSR sort gate)": "low polyreactivity"}
{"sequence": "QVQLVESGRGLVQAGGSLRLSCAASGITLYTNAMGWYRQAPGKEREFVAGISWNGGRTYYADSVKGRFTISRDNAKNTVYLQMNSLKPEDTAVYYCNARFVYRYKYYYWGQGTQVTVSS", "polyreactivity (PSR sort gate)": "high polyreactivity"}
{"sequence": "QVQIVESGGGLVQAGGSLRLTCAASGYIFTYYAMGWYRQAPWKERDLVAAISGSDGNTYYADSVKGRFTISRDNAKNTVYLQMNSLKPEDTAVYYCAKSGGLTFRSQSYDYWGQGTQVTVSS", "polyreactivity (PSR sort gate)": "low polyreactivity"}
{"sequence": "QVQLVESGGGLVQAGGSLRLSCAASGNTLIQYAMGWIIQAPGKEREVLAGISGTDDSTYYADSVKGRFTISRDNAKNTVYFQMTSLKPEDRSVYYCATREWYDKYPNIYVSFDYWGQGTQVTVSS", "polyreactivity (PSR sort gate)": "low polyreactivity"}
{"sequence": "QVQLVDSGGGLVQAGGSLRLSCAASGSTFRYNAMGWYRQAPGKERELVAAIDKRGDSTYADSVKGRFTISRDNAKNTVYLQMNSLKPEDTAVYYCAADSDSKYNYGFLWDTYEYWGQGTQVTVSS", "polyreactivity (PSR sort gate)": "low polyreactivity"}
{"sequence": "QVQLVESGGGLVQAGGSLRLSCAASGSIFAWYVMGWYRQAPGKERELVAGIDTSGGSTFYADSVKGRFTISRDNAKNTVYLQMNSLKPEDTAVYYCAADTWFRGPWEFDYWGQGTQVTVSS", "polyreactivity (PSR sort gate)": "low polyreactivity"}
{"sequence": "QVQLVESGGGLVQAGGSLRLSCAASGFTFYPYSMGWYRQAPGKERELVAAIRGSGGSTHYADSVKGRFTISRDNAKNTVYLQMNSLKPEDTAVYYCAARIRGYRQYGTYYYWGQGTQVTVSS", "polyreactivity (PSR sort gate)": "high polyreactivity"}
{"sequence": "QVHLVESGGGLVQAGGSLRLSCAASGGTFYYNTMGWSRQAPGKERELVAAITSGTSTNYADSVKGRFTISRDNAKNTVYLQMNSRIQEDTAVFDCAADPDADDPRRGYDYWGQGTQVTVSS", "polyreactivity (PSR sort gate)": "low polyreactivity"}
{"sequence": "QVQLVESGGGLVQAGGSLRLICAASGFTFDENAMGWYRQAPGINYSGASTYYADSVKGRFTISRDNAKNTVYLQMISLKPEDTAVYYCAADYETGAVSILDDYWGQGTQVTVSS", "polyreactivity (PSR sort gate)": "low polyreactivity"}
{"sequence": "QVQLVESGGCLVQAGGSLRLSCPPSGSIFIYYAMGWYRHAPGKERELVAAISWSCGDTYYADSVKGRFTISRDNAKNTVYLQMNSLKPEDTAVYYCNADFDPYYPYTAWDSVLTHDEYWGQGTQVTVSS", "polyreactivity (PSR sort gate)": "low polyreactivity"}
{"sequence": "QVQLVESGGGLVQAGGSLRLSSAASGRTFNIYAKGWYRHAPGKERELVAAITWRSGSTYDADSVKGRFTISRDNAKNTVYLQMNSLKPEDTAVYYCAAEQWSSVPEFDYWGQGTQVTVSS", "polyreactivity (PSR sort gate)": "high polyreactivity"}
{"sequence": "QVQLVESGGGLVQAGGSLRLSCAASGITFGSYAMGWYRQAPGKEREFVAAISLSGGNTYYADSEKGRFTISRDNAKNPVYLQMNSLKPEDTAVYYCAADPFSSYYKMEYWGQGTQVTVSS", "polyreactivity (PSR sort gate)": "high polyreactivity"}
{"sequence": "QVQLVESGGGLVQAGGSLRFSCAASGRTIYYNTMGWYRQAPGKERELVAAINYGGSTYYADSVKGRFTISRDNAKNTVYLQMHSLKPEDTAVYYCNAVTRPKTWRYDYWGQGPQVTVSS", "polyreactivity (PSR sort gate)": "high polyreactivity"}
{"sequence": "QVQLVESGGGLVQAGGSLRISCAASGRTFRRYEMGWYREAPGKERELVASISSSAGSTYYADSVKGRFTISRDNAKNTVYFQMNSLKPEDTAVYYCAFVPTVYARSRYGYWGQGTQVTVSS", "polyreactivity (PSR sort gate)": "high polyreactivity"}
{"sequence": "QVQLVESGGGLVQAGGSLRLSCAASGIILYWNAMGWYRQAPGKERELVARITSGGSTNYADSVKGRFTISRDNAKNTVYLQMNSLKPEDTAVYYCAADYKAYGRSYDYWGQGTQVTVSS", "polyreactivity (PSR sort gate)": "low polyreactivity"}
{"sequence": "QVQLVESGGGLVQAGGSLRLSCAASGFTFSFYTMGWYRQAPGKERELVAAISTSGSTYYADSVKGRFTISRDNAKNTVYLQMNSLKPEDTAVYYCAAGRWWRYFTWHGYWGQGTQVTVSS", "polyreactivity (PSR sort gate)": "high polyreactivity"}
{"sequence": "QVQHVESGGGLVQAGGSRRLTCAASGYTFYKYAMGWYRQAPGKERELVAAISSSGGSTYYADSVKGRFTISRDNAKNTGYLHMNSLKPVDTAVYYCAAFVYSNDYDYWGQGTQVTVSS", "polyreactivity (PSR sort gate)": "high polyreactivity"}
{"sequence": "QVQLVESGGGLVQAGGSLRLSCAASGAIFYYYAMGWYRQAPGKERELVATITASGGSTFYADSVKGRFTISRDNAKNTVYLQMNSLKPEDTAVYYCAATVYYTYWGQGTQVTVSS", "polyreactivity (PSR sort gate)": "low polyreactivity"}
{"sequence": "QVQLVESGGGLVQAGGSLRLSCAASGITFVPYVMGWYRQAPGKERELVAAITVRGSRTYYADSVKGRFTISRDNAKNTVYLQMNSLKPEDTAVYYCAAGRYLSRTFFTYYYWGQGTQVTVSS", "polyreactivity (PSR sort gate)": "high polyreactivity"}
{"sequence": "QVQHVESGGGLLQAGGSLRLSCAASGMGWYRQAPGKERELVAVIRWSSGSTYYADSVKGRFTISRDNAKNTVYLQMNSLKPDDTAVYYCNARDQYYGDPSSQPDTRSRSDYWGQGTQVTVSS", "polyreactivity (PSR sort gate)": "low polyreactivity"}
{"sequence": "QVQLVESGGGLVQAGGSLRLSCAASGSIFSFYTMGWYRQAPGKERELVATISWRSGSTYYADSVKGRFTISRDNAKNTVYLQMNSLKPEDTAVYYCARSTSRYYYWGQGTQVTVSS", "polyreactivity (PSR sort gate)": "high polyreactivity"}
